B1: ZNF75A (parent)
chain: RTHTGEQPYTCSICRRNFSRRSSL
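Also: lentivirally expressed fusions sorted by FACS into six bins by GFP to DsRed ratio, PSI derived from sequencing read proportions per bin multiplied by bin number.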

In this data set the parent is B1. Put plainly: protein stability index of a GFP-peptide fusion (GPS, HEK-293T) (PSI 1-6); higher = more stable. Particulars: c terminus: a fixed tail appended.
Regarding RTHTGEQPYTCPICRRNFSRRSSL, the protein stability index is 3.14.
As for RTHTGEQPYTCCICRRNFSRRSSL, the figure is 2.4; as for RTHTGEQPYTCTICRRNFSRRSSL, 2.82.
Then RTHTGEQPYTCFICRRNFSRRSSL, with 2.83.
With RTHTGEQPYTCIICRRNFSRRSSL, the protein stability index is 2.53.
On to RTHTGEQPYTCQICRRNFSRRSSL, for which the protein stability index is 2.61.
Consider RTHTGEQPYTCHICRRNFSRRSSL, for which the protein stability index was 3.13.
As for RTHTGEQPYTCGICRRNFSRRSSL, the figure is 2.38; as for RTHTGEQPYTCDICRRNFSRRSSL, 3.1.
Then RTHTGEQPYTCVICRRNFSRRSSL, with 2.98; and RTHTGEQPYTCMICRRNFSRRSSL, with 2.41; and RTHTGEQPYTCYICRRNFSRRSSL, with 2.81.
As for RTHTGEQPYTCEICRRNFSRRSSL, the figure is 2.26; as for RTHTGEQPYTCLICRRNFSRRSSL, 2.04; as for RTHTGEQPYTCKICRRNFSRRSSL, 2.63.
As to RTHTGEQPYTCRICRRNFSRRSSL, the protein stability index was 3.07.
As for RTHTGEQPYTCAICRRNFSRRSSL, the figure is 2.21.
With RTHTGEQPYTCNICRRNFSRRSSL, the protein stability index is 2.52.
As for RTHTGEQPYTCWICRRNFSRRSSL, the figure is 2.21; as for RTHTGEQPMTCSICRRNFSRRSSL, 2.27.
As for RTHTGEQPQTCSICRRNFSRRSSL, the figure is 2.32; as for RTHTGEQPRTCSICRRNFSRRSSL, 2.46; as for RTHTGEQPFTCSICRRNFSRRSSL, 2.64.
As to RTHTGEQPTTCSICRRNFSRRSSL, the protein stability index worked out at 2.51.
Then RTHTGEQPNTCSICRRNFSRRSSL, with 2.56.
As for RTHTGEQPATCSICRRNFSRRSSL, the figure is 2.68.
Then RTHTGEQPPTCSICRRNFSRRSSL, with 2.69; and RTHTGEQPHTCSICRRNFSRRSSL, with 3.02; and RTHTGEQPETCSICRRNFSRRSSL, with 3.15.
Take RTHTGEQPLTCSICRRNFSRRSSL: the protein stability index worked out at 2.39.
As for RTHTGEQPCTCSICRRNFSRRSSL, the figure is 4.17; as for RTHTGEQPDTCSICRRNFSRRSSL, 2.92; as for RTHTGEQPGTCSICRRNFSRRSSL, 3.29.
For the variant RTHTGEQPKTCSICRRNFSRRSSL, the protein stability index came out at 2.17.
As to RTHTGEQPVTCSICRRNFSRRSSL, the protein stability index came to 2.58.
Then RTHTGEQPITCSICRRNFSRRSSL, with 2.71.
As for RTHTGEQPWTCSICRRNFSRRSSL, the figure is 3.02; as for RTHTGEQPSTCSICRRNFSRRSSL, 2.55; as for RTHTGEQSYTCSICRRNFSRRSSL, 2.81.
Then RTHTGEQTYTCSICRRNFSRRSSL, with 3.76; and RTHTGEQVYTCSICRRNFSRRSSL, with 3.4.
As to RTHTGEQWYTCSICRRNFSRRSSL, the protein stability index amounted to 3.05.
With RTHTGEQYYTCSICRRNFSRRSSL, the protein stability index was found to be 3.16.
As for RTHTGEQPYTCSICRRIFSRRSSL, the figure is 2.18.
Then RTHTGEQPYTCSICRRAFSRRSSL, with 3.22.
Turning to RTHTGEQPYTCSICRRFFSRRSSL, the protein stability index stood at 2.36.
As for RTHTGEQPYTCSICRRQFSRRSSL, the figure is 3.17; as for RTHTGEQPYTCSICRRRFSRRSSL, 2.99; as for RTHTGEQPYTCSICRRLFSRRSSL, 1.88.
Then RTHTGEQPYTCSICRRVFSRRSSL, with 2.62.
As for RTHTGEQPYTCSICRRMFSRRSSL, the figure is 2.3; as for RTHTGEQPYTCSICRRWFSRRSSL, 2.46; as for RTHTGEQPYTCSICRRHFSRRSSL, 2.61.
For the variant RTHTGEQPYTCSICRRTFSRRSSL, the protein stability index was 3.5.
As for RTHTGEQPYTCSICRRGFSRRSSL, the figure is 2.75; as for RTHTGEQPYTCSICRRKFSRRSSL, 3.78.
Then RTHTGEQPYTCSICRRCFSRRSSL, with 3.01.
As for RTHTGEQPYTCSICRREFSRRSSL, the figure is 2.19.
As to RTHTGEQPYTCSICRRYFSRRSSL, the protein stability index came out at 2.63.
As to RTHTGEQPYTCSICRRSFSRRSSL, the protein stability index amounted to 2.74.
For RTHTGEQPYTCSICRRDFSRRSSL, the protein stability index came out at 2.3.
As for RTHTGEQPYTCSIIRRNFSRRSSL, the figure is 4.01; as for RTHTGEQPYTCSIVRRNFSRRSSL, 4.03; as for RTHTGEQPYTCSIGRRNFSRRSSL, 4.72.
As for RTHTGEQPYTCSIWRRNFSRRSSL, the figure is 2.68; as for RTHTGEQPYTCSIYRRNFSRRSSL, 3.66; as for RTHTGEQPYTCSIFRRNFSRRSSL, 3.59.
Then RTHTGEQPYTCSIPRRNFSRRSSL, with 3.6; and RTHTGEQPYTCSIMRRNFSRRSSL, with 3.92; and RTHTGEQPYTCSIDRRNFSRRSSL, with 3.7.
Turning to RTHTGEQPYTCSIKRRNFSRRSSL, the protein stability index worked out at 4.03.
As for RTHTGEQPYTCSIRRRNFSRRSSL, the figure is 4.49; as for RTHTGEQPYTCSITRRNFSRRSSL, 4.21.
As for RTHTGEQPYTCSIHRRNFSRRSSL, the figure is 3.87; as for RTHTGEQPYTCSISRRNFSRRSSL, 4.04; as for RTHTGEQPYTCSIARRNFSRRSSL, 3.67.
As for RTHTGEQPYTCSINRRNFSRRSSL, the figure is 4.11.
On to RTHTGEQPYTCSIQRRNFSRRSSL, for which the protein stability index was determined as 3.72.
As for RTHTGEQPYTCSILRRNFSRRSSL, the figure is 3.5.
As to RTHTGEQPYTCSIERRNFSRRSSL, the protein stability index was 4.42.
As for RTHTGEQPYTCSICRRNCSRRSSL, the figure is 2.57.
Then RTHTGEQPYTCSICRRNGSRRSSL, with 2.38; and RTHTGEQPYTCSICRRNISRRSSL, with 2.28; and RTHTGEQPYTCSICRRNKSRRSSL, with 2.6.
Then RTHTGEQPYTCSICRRNPSRRSSL, with 2.14; and RTHTGEQPYTCSICRRNMSRRSSL, with 2.49.
Turning to RTHTGEQPYTCSICRRNDSRRSSL, the protein stability index came to 2.76.
As for RTHTGEQPYTCSICRRNLSRRSSL, the figure is 2.21; as for RTHTGEQPYTCSICRRNNSRRSSL, 2.29; as for RTHTGEQPYTCSICRRNQSRRSSL, 2.41.
Take RTHTGEQPYTCSICRRNASRRSSL: the protein stability index was 3.47.
Then RTHTGEQPYTCSICRRNHSRRSSL, with 2.83; and RTHTGEQPYTCSICRRNESRRSSL, with 1.74; and RTHTGEQPYTCSTCRRNFSRRSSL, with 2.7.

Source of the values: the supplement of paper PMC10567573.
